Assays:
IIB RNA = assay: Fluorescence anisotropy analysis of cRev with Cy3-labeled IIB RNA; assay type: binding, HIV-1; conditions: Cy3-IIB RNA 250 nM, room temperature, pH 6.0; read-out: Kd (dissociation constant) for the interaction with IIB RNA
Description: IIB RRE labeled with […] Cy3 was dissolved in a binding buffer (25 mM sodium phosphate, 50 mM NaCl, pH 6.0). The peptide (sample) of various concentrations was sequentially added to 250 nM RNA. The final concentration of the peptide was 600 nM. After the mixing, the sample was incubated for 1 minute. There was 1-minute incubation time between all the steps. All the experiments were performed at room temperature. The dissociation constant (Kd) was calculated using the Origin software.
In order to analyze the function of cRev, the cRev of Preparation Example 2 was mixed with Cy3-labeled IIB RNA and then fluorescence anisotropy analysis was performed.

[1] = system: wild-type IIB (RRE IIB WT); assay: EMSA with 32P-labeled wild-type IIB and mutant IIB; assay type: binding, HIV-1
Description: A peptide (sample) and ^32P-labeled RNA were mixed with a binding buffer (10 mM HEPES (pH 7.5), 100 mM KCl, 1 mM MgCl2, 0.5 mM EDTA, 10% glycerol and […] yeast tRNA). After serially diluting the peptide with the binding buffer, RNA (10 pM) of the same volume was added. The resulting mixture was incubated at room temperature for 30 minutes and electrophoresis was conducted at 4° C. on 10% polyacrylamide gel. The […] was visualized with FLA-7000 Phosphor Imager (GE Healthcare Life Sciences, USA) and analyzed using the Multi Gauge software.
In order to analyze the binding affinity of cRev for IIB RNA, the /Rev of Preparation Example 1 or the cRev of Preparation Example 2 was mixed with ^32P-labeled wild-type IIB and ^32P-labeled mutant IIB, respectively, and analyzed by EMSA (electrophoretic mobility shift assay). The mutation of IIB is the mutation in the G46-C74 base pairs of wild-type IIB.

HeLa cells [2] = assay: Flow cytometry of intracellular delivery of ZsGreen cargo; assay type: cell-based; conditions: Hela cells, 10, 20 or 50 μM, 4 hours
Description: Hela cells were inoculated onto a 24-well plate (10^5 cells/well) and cultured in a DMEM medium containing 10% FBS for 24 hours. After washing with PBS, the cells were treated with ZsGreen or the CPP22-ZsGreen fusion protein at 0, 10, 20 or 50 μM for 4 hours. Then, after washing the cells twice with PBS and incubating with trypsin (1 mg/mL) for 15 minutes, the peptides bound to the cell surface were removed. The cells were centrifuged at 1,200 rpm for 5 minutes, washed twice with PBS, and then suspended in a PBS buffer containing 10% non-enzymatic cell dissociation solution. The fluorescence intensity of the internalized peptide was measured using a BD LSR II flow cytometer (BD Biosciences, USA).

HeLa cells [3] = assay: Confocal microscopy of intracellular delivery of ZsGreen cargo; assay type: cell-based; conditions: 50 μM, 30 minutes
Description: A DMEM medium containing 10% FBS was prepared on an 8-well Lab-Tek II chamber slide (Thermo Fisher Scientific, USA). Hela cells were dispensed in each well at a density of 10^4 cells/well and cultured for 24 hours. The cells were washed twice with PBS and then cultured for 30 minutes after replacing the medium with one containing 50 μM of the ZsGreen or the CPP22-ZsGreen fusion protein. The cells were washed with PBS, treated with DAPI, and then washed with PBS after reaction for 5 minutes (for observation of cell nuclei). Then, the stained cells were observed by confocal microscopy.

B1: CRGGDEDALKAARAIKFLYQSNPPPNPEGTRQARRNRRRRWRERQRQIHSASERIASTLGGMRM (protein)
chain: CRGGDEDALKAARAIKFLYQSNPPPNPEGTRQARRNRRRRWRERQRQIHSASERIASTLGGMRM
modifications: cyclized via intein; The peptide is circular.
notes: cyclic, oligomerization-defective Rev N-terminal domain protein made by intein-mediated cyclization
- Kd (IIB RNA): 34 nM
- binding affinity for wild-type IIB compared with /Rev ([1]; wild-type IIB (RRE IIB WT)): significantly higher binding affinity
- recognition of IIB RNA (EMSA) ([1]; wild-type IIB versus mutant IIB): specifically recognizes IIB RNA

B2: ZsGreen: green fluorescent protein, expressed from bacterial cells, used as a comparative example (protein)
chain: MAQSKHGLTKEMTMKYRMEGCVDGHKFVITGEGIGYPFKGKQAINLCVVEGGPLPFAEDILSAAFMYGNRVFTEYPQDIADYFKNSCPAGYTWDRSFLFEDGAVCICNADITVSVEENCMYHESKFYGVNFPADGPVMKKMTDNWEPSCEKIIPVPKQGILKGDVSMYLLLKDGGRLRCQFDTVYKAKSVPRKMPDWHFIQHKLTREDRSDAKNQKWHLTEHAIASGSALP
- intracellular delivery (flow cytometry) (HeLa cells [2]): no intracellular delivery was observed
- intracellular delivery (confocal microscopy) (HeLa cells [3]): not delivered into the cells

B3: CPP22-ZsGreen: fusion protein wherein CPP22 is fused with the ZsGreen protein (protein)
chain: GSHMASAAAQARRNAAAQARRNAAAQARRNAAAQARRNAAAQARRNAAAGSGSGSGSGPVATMAQSKHGLTKEMTMKYRMEGCVDGHKFVITGEGIGYPFKGKQAINLCVVEGGPLPFAEDILSAAFMYGNRVFTEYPQDIADYFKNSCPAGYTWDRSFLFEDGAVCICNADITVSVEENCMYHESKFYGVNFPADGPVMKKMTDNWEPSCEKIIPVPKQGILKGDVSMYLLLKDGGRLRCQFDTVYKAKSVPRKMPDWHFIQHKLTREDRSDAKNQKWHLTEHAIASGSALP
- intracellular delivery (flow cytometry) (HeLa cells [2]): delivered to and accumulated in the cells at a significantly high level
- intracellular delivery (confocal microscopy) (HeLa cells [3]): successfully delivered into and accumulated in the cells at a significant level
